According to patent publication US20080039411A1, “Use Of Resistin Antisense Oligonucleotides And/Or Sirna Molecules In The Treatment Of Rheumatoid Arthritis” (priority 2004, published 2008):

What was measured:
[1] = tested on: human PBMC (resistin mRNA); assay: Stimulation of human PBMC with pro-inflammatory cytokines: resistin mRNA; format: cell-based; conditions: human PBMC (n=5), physiological concentrations (TNF-alpha 1-5 ng/ml)
Experimental: (§1) Peripheral blood mononuclear cells (PBMC) were prepared from heparinized blood of healthy individuals by separation on a Lymphoprep density gradient, washed, and resuspended in complete medium (Iscoves medium containing 1% L-glutamine, 5×10^−5 M ®-mercapto ethanol, […] of gentamycin sulphate, and 10% heat inactivated fetal calf serum). Culturing of PBMC was carried out in 24-well plates in a humidified atmosphere of 5% CO2 at 37° C. Culturing of monocytic cell line THP-1 (American Type Culture Collection, Manassas, Va.) was performed in 10-ml culture flasks (Nunclon) in […] medium supplemented with 10% FCS, 1% sodium pyruvate, gentamycin, and 2.5% Hepes in a humidified atmosphere of 5% CO2 at 37° C. For the experiments, 4-days old cells were harvested, washed, and adjusted to 1×10^6 cells/ml.
(§2) Total RNA from harvested cells was extracted by an RNAeasy kit (Qiagen, Inc.) and concentration was assessed spectrophotometrically at 260 nm. The gene expression was measured with TaqMan real time PCR (Applied Biosystems, Foster City, Calif.) as previously described (N&S, 2001). In short, total RNA extracts were treated with deoxyribonuclease I, and reverse transcribed with random nonamer primers and superscript II RnaseH-reverse transcriptase (life Technologies). After first strand cDNA synthesis, relative transcript cDNA levels were measured using oligonucleotide PCR primers and fluorogenic Taqman probes for test genes and 18S rRNA. […] For generation of the standard curve, serially diluted cDNA prepared from PBMC were used. Each TaqMan set span one or two exon joints in order to increase further both specificity of only RNA detection and efficiency of PCR reaction. Sequences were manually designed with using the PrimerExpress program (Applied Biosystems) to check them for secondary structure, melting temperature, GC content, primer to primer and/or to probe dimmers. The GenBank database was useful to avoid all known sites of oligonucleotide polymorphism and unspecific annealing of any nucleotide.

THP-1 cells = assay: Stimulation of monocytic cell line THP-1; format: cell-based, human
Experimental: as §1

[2] = tested on: knee joint of healthy mice; assay: Intra-articular injection of recombinant mouse resistin into knee joint, histology; format: in vivo
Experimental: Female NMRI mice, 6-8 weeks old, weighing 25-30 g, were purchased from ALAB (Stockholm, Sweden). The mice were bred and housed in the animal facility of the Department of Rheumatology, University of Göteborg, under standard conditions of temperature and light, and fed laboratory chow and water ad libidum. Mouse recombinant resistin (PeproTech EC, London, U.K.) was injected intra-particularly into the right knee joint (0.1-100 ng/knee) in the total volume of 20 μl. Control mice obtained equivalent volume of mouse albumin (Sigma, St. Louise, Mo.) in PBS buffer. Three days after the joint injection, the mice were sacrificed by cervical dislocation and the right knee was removed for histological examination.
Histological examination of joints was done after routine fixation, decalcification, and paraffin embedding of the tissue. Tissue sections of the knee joints were cut and stained with hematoxylin and eosin. All the slides were coded and evaluated blindly by two investigators with respect to synovial hypertrophy, the inflammatory cell infiltration of synovia, pannus formation, and cartilage and subchondral bone destruction. Synovial hypertrophy was defined as synovial membrane thickness of more than two cell layers. Intensity of in-flammatory cell infiltration of synovia was graded arbitrarily from 0 to 3.

human PBMC = assay: Resistin stimulation of PBMC: cytokine gene expression and cytokine release; format: cell-based
Experimental: as §1
Freshly isolated PBMC were re-suspended to 2×10^6/ml and stimulated with recombinant human resistin (endotoxin concentration less than 0.1 ng/μg, PeproTech) at final concentration 10-1000 ng/ml. LPS (10 ng/ml) was used as a positive control in all the experiments. […] Cell stimulation period differed depending on the read-out system used. […]
Total RNA from harvested cells was extracted by an RNAeasy kit (Qiagen, Inc.) and concentration was assessed spectrophotometrically at 260 nm. The gene expression was measured with TaqMan real time PCR (Applied Biosystems, Foster City, Calif.) as previously described (N&S, 2001). […] After first strand cDNA synthesis, relative transcript cDNA levels were measured using oligonucleotide PCR primers and fluorogenic Taqman probes for test genes and 18S rRNA. […]
The level of IL-6 in synovial fluid and supernatants was determined by a bioassay. The effect of test samples on proliferation of the IL-6 dependent cell line B13.29 [21] was assessed following 72 h of culturing. The results were analyzed by incorporation of [3H]-thymidine (Radiochemical Centre, Amersham, Bucks, U.K.) during the last 4 h of incubation at 37° C. […]
Levels of TNF-α and IL-1B were assessed using an ELISA kit (R&D Systems) following manufacture's recommendations. […]

synovial cells = assay: In vitro stimulation of synovial cells from patients with acute synovitis; format: cell-based, human; conditions: synovial cells from patients with acute synovitis (n=4)
Experimental: as §2

NF-kappaB = assay: Electrophoretic mobility shift assay of nuclear extracts of resistin-stimulated PBMC; format: cell-based, human; conditions: PBMC stimulated with resistin
Experimental: Human PBMC (10^7) were stimulated with recombinant resistin (10-500 ng/ml) as described above. After 2 h, the stimulation was stopped with ice-cold PBS, cells were washed and resuspended in 2 ml hypotonic buffer (pH 7.9, containing 10 mM HEPES, 0.1 mM EDTA, 0.1 mM EGTA, 10 mM KCl, 0.75 mM spermidin, 0.15 mM spermin, […] and proteinase inhibitors, Complete MiniTab, Boehringer) and homogenised. Following centrifugation at 14000 g at 4° C. for 10 min, the supernatant was removed and the pellet was resuspended in the ice-cold extraction buffer (pH 7.9, 20 mM HEPES, 0.42 M NaCl, […], 1 mM EGTA, 25% glycerol, […] and proteinase inhibitors). Extraction proceeded at 4° C. under continuous rotation for 1 h. The supernatants containing nuclear extracts were collected after centrifugation 14000 g for 1 h at 4° C. Protein concentration in the extracts was determined using Bradford reagent (Sigma). Nuclear extracts were aliquoted and stored at −70° C. until use.
EMSA was performed as described elsewhere (Bergquist et al., 2000) with minor modifications. The sequences for oligonucleotides used for the assay were as follows:
Oligonucleotides were annealed at 56° C. The double stranded product was purified by elution from the electrophoretic gel. […]

IL-1b: pro-inflammatory cytokine used to stimulate PBMC
induction of resistin mRNA [1]: less efficient

IL-6: pro-inflammatory cytokine used to stimulate PBMC
induction of resistin mRNA [1]: less efficient

TNF-alpha
induction of resistin mRNA [1]: could induce the expression of resistin
expression of resistin gene (THP-1 cells; THP-1 cells): neither stimulation with TNF-a nor with LPS gave rise to the expression of resistin gene

B1: recombinant mouse resistin: Mouse recombinant resistin (PeproTech EC, London, U.K.) (protein, UniProt Q99P87 21-114, looked up)
Resistin: SSMPLCPIDEAIDKKIKQDFNSLFPNAIKNIGLNCWTVSSRGKLASCPEGTAVLSCSCGSACGSWDIREEKVCHCQCARIDWTAARCCKLQVAS
histological analysis of injected joints ([2]; 0.1-100 ng/knee intra-articularly, three days after injection): signs of inflammation in the joint
leukocyte infiltration and hyperplasia of synovia ([2]; single intra-articular injection, 1 ng/knee (50 ng/ml)): sufficient to induce leukocyte infiltration and hyperplasia of synovia

B2: recombinant human resistin: recombinant human resistin (endotoxin concentration less than 0.1 ng/μg, PeproTech) (protein, UniProt Q9HD89 19-108, looked up)
Resistin: KTLCSMEEAINERIQEVAGSLIFRAISSIGLECQSVTSRGDLATCPRGFAVTGCTCGSACGSWDVRAETTCHCQCAGMDWTGARCCRVQP
IL-6 activity and levels of TNF-alpha and IL-1b in supernatants (human PBMC; PBMC, 48 hours of stimulation): dose dependent increase
cytokine gene expression (TNF-alpha, IL-6, IL-1b) in cell lysates (human PBMC; PBMC, resistin 10-1000 ng/ml): induction of genes for pro-inflammatory cytokines
resistin gene expression in PBMC (human PBMC; resistin stimulation, detectable following 3 h up to 24 h): self-stimulation of resistin gene
cytokine production (THP-1 cells; THP-1 stimulated with resistin): cytokine production in the pattern similar to PBMC
expression of TNF-alpha and IL-6 genes (synovial cells): increased expression of TNF-alpha and IL-6 genes
NF-kappaB translocation (EMSA) (NF-kappaB): induced translocation of NF-kappaB from cytoplasma to nucleus
